For assay [1], the target named is authentic influenza antigen of A/PR/8/34 (ATCC VR-1469), serotype H1N1 (influenza A virus A/PR/8/34 (H1N1), UniProt P03452 18-565). As to the kind of experiment: ELISA, coated authentic AIV antigen, E. coli culture supernatant, anti-c-myc-HRP. (ELISA stands for enzyme-linked immunosorbent assay.)
In assay [2] the target is T1, Glycoprotein G of rabies virus strain CVS-11 (Challenge Virus Standard-11, ATCC VR 959) (rabies virus, strain CVS-11).
T1 chain: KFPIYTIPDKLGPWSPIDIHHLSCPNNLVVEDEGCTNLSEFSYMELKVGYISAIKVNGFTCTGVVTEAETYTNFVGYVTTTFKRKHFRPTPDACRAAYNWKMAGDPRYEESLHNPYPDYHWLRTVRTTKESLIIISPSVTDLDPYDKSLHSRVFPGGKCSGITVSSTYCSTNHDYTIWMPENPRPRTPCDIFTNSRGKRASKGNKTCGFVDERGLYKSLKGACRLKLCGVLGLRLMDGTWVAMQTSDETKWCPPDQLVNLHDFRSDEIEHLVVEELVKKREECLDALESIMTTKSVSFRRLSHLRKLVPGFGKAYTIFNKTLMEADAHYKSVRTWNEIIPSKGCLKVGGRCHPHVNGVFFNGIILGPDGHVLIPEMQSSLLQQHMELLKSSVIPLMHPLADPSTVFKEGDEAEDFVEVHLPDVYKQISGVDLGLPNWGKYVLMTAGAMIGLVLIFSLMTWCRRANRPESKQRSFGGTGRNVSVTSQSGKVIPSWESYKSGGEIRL
As to the kind of experiment: cell-based or functional assay.

For assay [3], the target named is T2, FTM-NN protein (membrane anchorless form of the Long fusion protein, 70 kDa) (human respiratory syncytial virus, …, UniProt P12568 26-524).
T2 construct: domain: membrane anchorless form of the fusion protein
As to the kind of experiment: SPR (Biacore), FTM-NN immobilised.

The target in the next assay is F protein of RSV B-1 (human respiratory syncytial virus, …, UniProt P13843 26-574). As to the kind of experiment: cell-based or functional assay.
For assay [4], the target named is hRSV (inactivated hRSV strain Long, Hytest #8RSV79), F protein on virus particles (human respiratory syncytial virus, …, UniProt P12568 26-574). As to the kind of experiment: binding ELISA on coated hRSV (Hytest), anti-VHH detection.
Assay [5] deals with T2, FTM-NN protein (membrane anchorless …). As to the kind of experiment: competition ELISA on coated FTM-NN; competitor biotinylated Synagis Fab.
For assay [6], the target named is F protein of RSV Long (RSV LONG M-2) (human respiratory syncytial virus, …, UniProt P12568 26-574). As to the kind of experiment: cell-based or functional assay.
The next assay deals with F protein of RSV A-2 (human respiratory syncytial virus, …, UniProt P03420 26-574). As to the kind of experiment: cell-based or functional assay.

The values that follow come from patent publication US20200123233A1 (published 2020).

In general, Kd refers to the concentration at which binding is half-saturated. Read a low Kd as a tighter complex. The koff is the rate constant with which the complex falls apart. Low values mean slow dissociation, high ones fast dissociation. A word on the kon: it is a measure of how fast the partners come together. Read a high kon as faster complex formation. In general, EC50 refers to the concentration needed to bring the measured effect to its halfway point. A lower EC50 goes with an effect from little substance.

B1: IV2 (VHH)
VHH: QVQLQESGGGLVQTGGSLRLSCAASGRTFGGYAMAWFRQAPRKGREFVASVTWNGGATDYAGSVKDRFTVSRDTANNTMYLQMNSLKPEDTAVYICGAASGYRSTDRLSDPGWTNYWGQGTQVTVSS
Take B1: the “Extinction at 450 nm in ELISA” value in assay [1] stood at 0.048 extinction at 450 nm.

B2: IV7 (VHH)
VHH: QVQLQQSGGGLVQTGGSLRLSCAASGRTFGGYAMAWFRQAPGKGREFVAAVTWSAGTTNYAGSVKDRFTVSRDNANNTMYLQMNSLKPEDTAVYICGAASGYRSTDRLSEPAWINYWGQGTQVTVSS
B2: the “Extinction at 450 nm in ELISA” value in assay [1] was 0.048 extinction at 450 nm.

B3: IV10 (VHH)
VHH: QVQLQESGGGLVQAGGSLRLSCATSGRPFGGYAMAWFRQAPGKGREFVAAVTWSAGTTNYAGSVKDRFTVSRDNANNTMYLQMNSLKPEDTAVYICGAATGYRSTDRLSDPNWVNYWGQGTQVTVSS
As for B3, the “Extinction at 450 nm in ELISA” value in assay [1] amounted to 0.047 extinction at 450 nm.

B4: 213H7-15GS-214 F8 (VHH)
chain: EVQLVESGGGLVQAGGSLRLSCAASGRTLSSYRMGWFRQAPGKEREFISTISWNGRSTYYADSVKGRFIFSEDNAKNTVYLQMNSLKPEDTAVYYCAAALIGGYYSDVDAWSYWGPGTQVTVSSGGGGSGGGGSGGGGSEVQLVESGGDLVQAGGSLRLSCVASGSTYSINAMGWYRQAPGKLRELVAAFRTGGSTDYADSVKGRFTISRDTAKNTVYLQMNSLKPEDTAVYYCNAEVIYYPYDYWGQGTQVTVSS
In the case of B4, in assay [2], the “CVS neutralizing antibody titre, nM IC50 (RFFIT)” value came to 0.33 nM and the “Potency (IU/nM) increase versus monovalent (RFFIT)” value worked out at 271 fold.

B5: LG191E4 (VHH)
VHH: EVQLVESGGGLVQAGGSLRLSCAASGPTFSADTMGWFRQAPGKEREFVATIPWSGGIAYYSDSVKGRFTMSRDNAKNTVDLQMNSLKPEDTALYYCAGSSRIYIYSDSLSERSYDYWGQGTQVTVSS
In assay [3], B5 yielded a dissociation constant (Kd) of 0.27 nM, a dissociation rate constant (koff) of 0.00015 s⁻¹ and a kon of 570000 M⁻¹ s⁻¹. In the assay with F protein of RSV B-1, the “RSV neutralization IC50 (nM) (n = 2), B1” value turned out to be 4330 nM. The molecule also displayed a 50% effective concentration (EC50) in assay [4] of 0.083 nM.

B6: RSVPMP7B2 (VHH)
VHH: EVQLVESGGGLVQAGDSLRLSCAASGRTFSSYAMGWFRQAPGKEREFVAAISWSDGSTYYADSVKGRFTISRDNAKNTVYLQMNSLKPEDTAVYYCAADLTSTNPGSYIYIWAYDYWGQGTQVTVSS
Regarding B6, in assay [3], the Kd came to 1.1 nM, the off-rate (koff) turned out to be 0.00065 s⁻¹ and the on-rate constant (kon) is 570000 M⁻¹ s⁻¹. A half-maximal response in assay [5] (EC50) required 1.9 nM. In assay [6], the “RSV neutralization IC50 (nM) (n = 2), Long” value was determined as 91 nM. In addition, in the assay with F protein of RSV B-1, the “RSV neutralization IC50 (nM) (n = 2), B1” value was 2690 nM. In addition, the “RSV neutralization IC50 (nM) (n = 2), A-2” value in the assay with F protein of RSV A-2 came to 177 nM. The molecule further registered a concentration giving a half-maximal response (EC50) in assay [4] of 0.09 nM.

B7: RSVNC23 (VHH)
VHH: EVQLVESGGGLVQPGGSLRLSCAASGRTFSSIAMGWFRQAPGKEREFVAAISWSRGRTFYADSVKGRFIISRDDAANTAYLQMNSLKPEDTAVYYCAVDTASWNSGSFIYDWAYDHWGQGTQVTVSS
On to B7, for which, in assay [3], the dissociation constant (Kd) was 0.92 nM, the koff amounted to 0.00074 s⁻¹ and the kon came out at 800000 M⁻¹ s⁻¹. Moreover, the EC50 in assay [5] worked out at 2.3 nM. The “RSV neutralization IC50 (nM) (n = 2), Long” value in assay [6] is 144 nM. Besides, the “RSV neutralization IC50 (nM) (n = 2), A-2” value with F protein of RSV A-2 turned out to be 109 nM. In assay [4], this molecule registered a concentration giving a half-maximal response (EC50) of 0.1 nM.

B8: RSVPMP15H8 (VHH)
VHH: EVQLVESGGGLVQAGGSLRLSCAASGRSFSNYVLGWFRQAPGKEREFVAAISFRGDSAIGAPSVEGRFTISRDNAKNTGYLQMNSLVPDDTAVYYCGAGTPLNPGAYIYDWSYDYWGRGTQVTVSS
In assay [3], B8 came in with an equilibrium dissociation constant (Kd) of 16 nM, a koff of 0.021 s⁻¹ and an on-rate (kon) of 1.2e+06 M⁻¹ s⁻¹. A half-maximal effect in assay [5] (EC50) was put at 39 nM. Moreover, in assay [6], the “RSV neutralization IC50 (nM) (n = 2), Long” value worked out at 200 nM. In addition, in the assay with F protein of RSV B-1, the “RSV neutralization IC50 (nM) (n = 2), B1” value stood at 2340 nM. For the same molecule, in the assay with F protein of RSV A-2, the “RSV neutralization IC50 (nM) (n = 2), A-2” value is 218 nM. In assay [4], this molecule gave an EC50 of 0.83 nM.

B9: RSVPMP15B3 (VHH)
VHH: EVQLVESGGGLVQPGGSLRLSCAASGLTLDYYALGWFRQAPGKEREGVSCISSSDHSTTYTDSVKGRFTISWDNAKNTLYLQMNSLKPGDTAVYYCAADPALGCYSGSYYPRYDYWGQGTQVTVSS
In assay [3], B9 registered a dissociation constant (Kd) of 0.67 nM, an off-rate (koff) of 0.00027 s⁻¹ and an on-rate (kon) of 410000 M⁻¹ s⁻¹. The “RSV neutralization IC50 (nM) (n = 2), B1” value with F protein of RSV B-1 is 1270 nM. The same molecule displayed a concentration for a half-maximal effect (EC50) in assay [4] of 0.058 nM.
